Assay results from article PMC12731782.

Target: N-terminally GFP-tagged mouse ClC-3c (mouse)
Assay: FRET or BRET; FLIM-FRET (phasor analysis of the donor lifetime) in living SH-SY5Y cells transfected with the IRES construct; GFP on ClC-3 as donor, mCherry on ClC-4 as acceptor; regions of interest at the plasma membrane or intracellular areas of intermediate fluorescence; tauD from cells expressing only the donor

Sequence of N-terminally GFP-tagged mouse ClC-3c (mouse) (P51791 whole entry): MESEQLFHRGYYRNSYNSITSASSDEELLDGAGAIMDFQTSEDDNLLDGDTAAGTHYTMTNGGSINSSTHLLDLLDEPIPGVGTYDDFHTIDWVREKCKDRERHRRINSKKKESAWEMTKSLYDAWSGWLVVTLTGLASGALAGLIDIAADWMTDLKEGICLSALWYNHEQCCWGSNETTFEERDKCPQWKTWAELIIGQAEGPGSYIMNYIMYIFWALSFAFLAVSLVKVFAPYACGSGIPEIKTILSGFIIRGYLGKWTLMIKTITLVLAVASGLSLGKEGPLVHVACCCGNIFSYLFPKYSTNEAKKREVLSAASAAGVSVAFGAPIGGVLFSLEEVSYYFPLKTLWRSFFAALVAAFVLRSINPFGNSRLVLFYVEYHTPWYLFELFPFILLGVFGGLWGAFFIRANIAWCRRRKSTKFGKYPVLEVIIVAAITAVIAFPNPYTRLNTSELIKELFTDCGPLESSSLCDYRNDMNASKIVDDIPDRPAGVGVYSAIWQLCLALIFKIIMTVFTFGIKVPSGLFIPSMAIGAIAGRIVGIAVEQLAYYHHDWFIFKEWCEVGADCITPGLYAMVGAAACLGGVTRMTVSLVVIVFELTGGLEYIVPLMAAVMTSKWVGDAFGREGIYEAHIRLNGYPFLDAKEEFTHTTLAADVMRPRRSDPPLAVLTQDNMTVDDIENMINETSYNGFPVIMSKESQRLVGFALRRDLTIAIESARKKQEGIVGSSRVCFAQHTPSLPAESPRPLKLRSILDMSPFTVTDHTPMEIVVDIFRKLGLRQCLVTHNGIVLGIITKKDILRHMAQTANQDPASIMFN

N-terminally mCherry-tagged human ClC-4 (from UniProt P51793 1-760) (natural protein)
donor fluorescence lifetime in the presence of the acceptor (τDA; unquenched donor τD = 2.22ns): 1.89 ns
